Experimental data from the Immune Epitope Database (IEDB).
One block for each sequence: values may come before it.

Key:
[1] = target: HLA-B*27:20; experiment: IEDB peptide-MHC binding, purified MHC/competitive/fluorescence; filed as Kd, often an IC50 or EC50 that approximates it; ≥ and ≤ were set here for values at or beyond the usual limits of such assays; conditions: source organism: Burkholderia mallei SAVP1
[2] = target: HLA-B*15:42; experiment: as above; conditions: source organism: Burkholderia mallei SAVP1
[3] = target: HLA-B*83:01; experiment: as above; conditions: source organism: Burkholderia mallei SAVP1
[4] = target: HLA-B*45:06; experiment: as above; conditions: source organism: Burkholderia mallei SAVP1
[5] = target: HLA-C*05:01; experiment: IEDB peptide-MHC binding, purified MHC/direct/fluorescence; filed as Kd, often an IC50 or EC50 that approximates it; ≥ and ≤ were set here for values at or beyond the usual limits of such assays; conditions: source organism: Burkholderia mallei SAVP1
[6] = target: HLA-C*15:02; experiment: as above; conditions: source organism: Burkholderia mallei SAVP1
[7] = target: HLA-B*08:02; experiment: as above; conditions: source organism: Burkholderia mallei ATCC 23344
[8] = target: HLA-B*08:01; experiment: as above; conditions: source organism: Burkholderia mallei ATCC 23344
[9] = target: HLA-C*07:02; experiment: as above; conditions: source organism: Burkholderia mallei SAVP1
[10] = target: HLA-C*06:02; experiment: as above; conditions: source organism: Burkholderia mallei SAVP1
[11] = target: HLA-C*14:02; experiment: as above; conditions: source organism: Burkholderia mallei SAVP1
[12] = target: HLA-B*58:01; experiment: IEDB peptide-MHC binding, purified MHC/competitive/fluorescence; ≥ and ≤ were set here for values at or beyond the usual limits of such assays; conditions: source organism: Homo sapiens
[13] = target: HLA-B*15:02; experiment: IEDB peptide-MHC binding, purified MHC/competitive/fluorescence; filed as Kd, often an IC50 or EC50 that approximates it; ≥ and ≤ were set here for values at or beyond the usual limits of such assays; conditions: source organism: Toxoplasma gondii RH
[14] = target: HLA-A*29:02; experiment: as above; conditions: source organism: Homo sapiens
[15] = target: HLA-A*02:50; experiment: as above; conditions: source organism: Homo sapiens
[16] = target: HLA-B*57:01; experiment: as above; conditions: source organism: Homo sapiens
[17] = target: HLA-B*51:01; experiment: as above
[18] = target: HLA-A*24:03; experiment: as above; conditions: source organism: Homo sapiens
[19] = target: HLA-A*25:01; experiment: as above; conditions: source organism: Homo sapiens
[20] = target: HLA-A*30:01; experiment: as above; conditions: source organism: Homo sapiens
[21] = target: HLA-B*44:02; experiment: as above; conditions: source organism: Homo sapiens
[22] = target: HLA-B*15:01; experiment: IEDB peptide-MHC binding, purified MHC/direct/fluorescence; filed as Kd, often an IC50 or EC50 that approximates it; ≥ and ≤ were set here for values at or beyond the usual limits of such assays
[23] = target: HLA-A*69:01; experiment: as above
[24] = target: HLA-B*40:01; experiment: as above
[25] = target: HLA-B*07:02; experiment: as above
[26] = target: HLA-A*02:01; experiment: as above; conditions: source organism: Homo sapiens
[27] = target: HLA-B*39:01; experiment: IEDB peptide-MHC binding, purified MHC/competitive/fluorescence; filed as Kd, often an IC50 or EC50 that approximates it; ≥ and ≤ were set here for values at or beyond the usual limits of such assays; conditions: source organism: Orthomarburgvirus marburgense
[28] = target: HLA-A*11:01; experiment: as above; conditions: source organism: Orthomarburgvirus marburgense
[29] = target: HLA-A*02:01; experiment: as above; conditions: source organism: Orthomarburgvirus marburgense
[30] = target: HLA-A*31:01; experiment: IEDB peptide-MHC binding, purified MHC/direct/fluorescence; filed as Kd, often an IC50 or EC50 that approximates it; ≥ and ≤ were set here for values at or beyond the usual limits of such assays; conditions: source organism: Marburg virus - Musoke, Kenya, 1980
[31] = target: HLA-B*46:01; experiment: as above; conditions: source organism: Marburg virus - Musoke, Kenya, 1980
[32] = target: HLA-B*15:17; experiment: as above; conditions: source organism: Marburg virus - Musoke, Kenya, 1980
[33] = target: HLA-B*27:05; experiment: as above; conditions: source organism: Marburg virus - Musoke, Kenya, 1980
[34] = target: HLA-B*38:01; experiment: as above; conditions: source organism: Ravn virus - Ravn, Kenya, 1987
[35] = target: HLA-B*57:01; experiment: as above; conditions: source organism: Marburg virus - Musoke, Kenya, 1980
[36] = target: HLA-B*18:01; experiment: as above; conditions: source organism: Marburg virus - Musoke, Kenya, 1980
[37] = target: HLA-A*01:01; experiment: as above; conditions: source organism: Marburg virus - Musoke, Kenya, 1980
[38] = target: HLA-B*48:01; experiment: as above; conditions: source organism: Marburg virus - Musoke, Kenya, 1980
[39] = target: HLA-B*58:01; experiment: as above; conditions: source organism: Marburg virus - Musoke, Kenya, 1980
[40] = target: HLA-A*30:01; experiment: as above; conditions: source organism: Ravn virus - Ravn, Kenya, 1987
[41] = target: HLA-A*26:01; experiment: as above; conditions: source organism: Ravn virus - Ravn, Kenya, 1987
[42] = target: HLA-A*03:01; experiment: as above; conditions: source organism: Marburg virus - Musoke, Kenya, 1980
[43] = target: HLA-B*53:01; experiment: IEDB peptide-MHC binding, purified MHC/competitive/fluorescence; ≥ and ≤ were set here for values at or beyond the usual limits of such assays; conditions: source organism: Ornithorhynchus anatinus
[44] = source organism: Marburg virus - Musoke, Kenya, 1980

Sequence: YARRYFYPL
Kd [1]: 0.0244 µM
Kd [2]: ≥ 5 µM
Kd [3]: ≥ 5 µM
Kd [4]: ≥ 5 µM
Kd [5]: ≥ 20 µM
Kd [6]: 0.011 µM
Kd [7]: 0.043 µM
Kd [8]: 0.002 µM
Kd [9]: 0.362 µM
Kd [10]: ≥ 20 µM
Kd [11]: 0.696 µM

Sequence: SLSSPDSAY
Kd [13]: 0.0251 µM

Sequence: VPAWLPLGI
Kd ([17]; source organism: Orthomarburgvirus marburgense): 0.116 µM
Kd [27]: 2.68 µM
Kd [28]: ≥ 20 µM
Kd [29]: 1.05 µM
Kd [22, 44]: ≥ 20 µM
Kd [23, 44]: 0.0111 µM
Kd [30]: ≥ 20 µM
Kd [31]: ≥ 20 µM
Kd [32]: 0.288 µM
Kd [33]: ≥ 20 µM
Kd [24, 44]: ≥ 20 µM
Kd [34]: ≥ 20 µM
Kd [35]: ≥ 20 µM
Kd [36]: 5.81 µM
Kd [37]: ≥ 20 µM
Kd [38]: ≥ 20 µM
Kd [39]: ≥ 20 µM
Kd [40]: ≥ 20 µM
Kd [25, 44]: 0.732 µM
Kd [41]: ≥ 20 µM
Kd [42]: ≥ 20 µM

Next, values leading:

IC50 [12]: 0.136 µM
Sequence: KSLTTTMQF

Kd [14]: ≥ 20 µM
Kd [15]: ≥ 20 µM
Kd [16]: ≥ 20 µM
Kd ([17]; source organism: Homo sapiens): ≥ 20 µM
Kd [18]: ≥ 20 µM
Kd [19]: 0.0108 µM
Kd [20]: ≥ 20 µM
Kd [21]: ≥ 20 µM
Kd ([22]; source organism: Homo sapiens): 4.76 µM
Kd ([23]; source organism: Homo sapiens): 0.00717 µM
Kd ([24]; source organism: Homo sapiens): 13.2 µM
Kd ([25]; source organism: Homo sapiens): 4.71 µM
Kd [26]: 5.7 µM
Sequence: EVIPYTPAM

IC50 [43]: 4.79 µM
Sequence: YSLEYFQF
